Patent US8530168B2, “Fusion protein comprising a Caspase domain and a nuclear hormone receptor binding domain and methods and uses thereof” (Helmholtz Zentrum Munich Deutsches Forschungszentrum fuer …, priority 2007, dated 2013)

B1: Casp8-ER(T2): fusion of murine Caspase-8 domain to the ER(T2) ligand binding domain, SEQ ID NO: 20 (protein)
chain: MSESRTSDKVYQMKNKPRGYCLIINNHDFSKAREDITQLRKMKDRKGTDCDKEALSKTFKELHFEIVSYDDCTANEIHEILEGYQSADHKNKDCFICCILSHGDKGVVYGTDGKEASIYDLTSYFTGSKCPSLSGKPKIFFIQACQGSNFQKGVPDEAGFEQQNHTLEVDSSSHKNYIPDEADFLLGMATVKNCVSYRDPVNGTWYIQSLCQSLRERCPQGDDILSILTGVNYDVSNKDDRRNKGKQMPQPTFTLRKKLFFPPLEPSAGDMRAANLWPSPLMIKRSKKNSLALSLTADQMVSALLDAEPPILYSEYDPTRPFSEASMMGLLTNLADRELVHMINWAKRVPGFVDLTLHDQVHLLECAWLEILMIGLVWRSMEHPVKLLFAPNLLLDRNQGKCVEGMVEIFDMLLATSSRFRMMNLQGEEFVCLKSIILLNSGVYTFLSSTLKSLEEKDHIHRVLDKITDTLIHLMAKAGLTLQQQHQRLAQLLLILSHIRHMSNKGMEHLYSMKCKNVVPLYDLLLEAADAHRLHAPTSRGGASVEETDQSHLATAGSTSSHSLQKYYITGEAEGFPATA
modifications: fusion protein Casp8-ER(T2)
B2: myrCasp8-ER(T2): murine Caspase-8 domain with N-terminal myristoylation motif fused to ER(T2) ligand binding domain, SEQ ID NO: 23 (protein)
chain: MGSSKSKPKDPSQRSESRTSDKVYQMKNKPRGYCLIINNHDFSKAREDITQLRKMKDRKGTDCDKEALSKTFKELHFEIVSYDDCTANEIHEILEGYQSADHKNKDCFICCILSHGDKGVVYGTDGKEASIYDLTSYFTGSKCPSLSGKPKIFFIQACQGSNFQKGVPDEAGFEQQNHTLEVDSSSHKNYIPDEADFLLGMATVKNCVSYRDPVNGTWYIQSLCQSLRERCPQGDDILSILTGVNYDVSNKDDRRNKGKQMPQPTFTLRKKLFFPPLEPSAGDMRAANLWPSPLMIKRSKKNSLALSLTADQMVSALLDAEPPILYSEYDPTRPFSEASMMGLLTNLADRELVHMINWAKRVPGFVDLTLHDQVHLLECAWLEILMIGLVWRSMEHPVKLLFAPNLLLDRNQGKCVEGMVEIFDMLLATSSRFRMMNLQGEEFVCLKSIILLNSGVYTFLSSTLKSLEEKDHIHRVLDKITDTLIHLMAKAGLTLQQQHQRLAQLLLILSHIRHMSNKGMEHLYSMKCKNVVPLYDLLLEAADAHRLHAPTSRGGASVEETDQSHLATAGSTSSHSLQKYYITGEAEGFPATA
modifications: N-terminal myristoylation motif; fusion protein myrCasp8-ER(T2)
B3: Cre-ER(T2): fusion of Cre recombinase to ER(T2) ligand binding domain, negative control, SEQ ID NO: 5 (protein)
chain: MSNLLTVHQNLPALPVDATSDEVRKNLMDMFRDRQAFSEHTWKMLLSVCRSWAAWCKLNNRKWFPAEPEDVRDYLLYLQARGLAVKTIQQHLGQLNMLHRRSGLPRPSDSNAVSLVMRRIRKENVDAGERAKQALAFERTDFDQVRSLMENSDRCQDIRNLAFLGIAYNTLLRIAEIARIRVKDISRTDGGRMLIHIGRTKTLVSTAGVEKALSLGVTKLVERWISVSGVADDPNNYLFCRVRKNGVAAPSATSQLSTRALEGIFEATHRLIYGAKDDSGQRYLAWSGHSARVGAARDMARAGVSIPEIMQAGGWTNVNIVMNYIRNLDSETGAMVRLLEDGDLEPSAGDMRAANLWPSPLMIKRSKKNSLALSLTADQMVSALLDAEPPILYSEYDPTRPFSEASMMGLLTNLADRELVHMINWAKRVPGFVDLTLHDQVHLLECAWLEILMIGLVWRSMEHPVKLLFAPNLLLDRNQGKCVEGMVEIFDMLLATSSRFRMMNLQGEEFVCLKSIILLNSGVYTFLSSTLKSLEEKDHIHRVLDKITDTLIHLMAKAGLTLQQQHQRLAQLLLILSHIRHMSNKGMEHLYSMKCKNVVPLYDLLLEAADAHRLHAPTSRGGASVEETDQSHLATAGSTSSHSLQKYYITGEAEGFPATA
modifications: fusion protein Cre-ER(T2)

What was measured:
Format in all cases: cell-based, mouse
MEF5/N9 cells [1] = experiment: Transient cotransfection of ER(T2) fusion expression vectors with β-galactosidase reporter; β-galactosidase activity in lysates; details: 10^−8 M 4-OH-tamoxifen, 48 h; for relative β-galactosidase activity in presence of 4-OH-tamoxifen compared to the negative control: relative to Cre-ER(T2) without 4-OH-tamoxifen
Method: The transformed mouse embryonic fibroblast cell line MEF5/N9 (Schwenk et al., Nucleic Acids Research, 26(6) 1427-1432 (1998)) was obtained from Michel Aguet (University of Zurich, Switzerland). The cells were grown in DMEM medium (Life Technologies) supplemented with 2 mM […] and 10% fetal calf serum at 37° C., 5% CO2 in humid atmosphere and passaged upon trypsinization. One day before transient transfection 4·10^4 cells were plated into a 24-well plate (Falcon). For the transient transfection of MEF5/N9 cells with plasmids, each well received into 500 μl of medium a total amount of 150 ng or 200 ng supercoiled plasmid DNA complexed before with the FuGene6 transfection reagent (Roche Diagnostics GmbH, Mannheim, Germany) according to the manufacturer's protocol. Each 150 ng or 200 ng DNA preparation (FIG. 2 sample 1 to 11) contained 100 ng of the β-Galactosidase expression vector pCMV-β-gal-pA (pCMVβ, Clontech, FIG. 1G, SEQ ID NO: 56), and 100 ng of the fusion ER(T2) expression vectors to be tested (FIG. 2 sample 3-7, 10-11) and the control plasmids (FIG. 2 sample 1-3), except for the samples with the plasmids pCAG-Casp9full-ER(T2)-bpA (FIG. 2 sample 8) and pCAG-Casp9trunc-ER(T2)-bpA (FIG. 2 sample 9), respectively, that received 50 ng of the test vector. For each sample to be tested four individual wells were transfected. Five hours after the addition of the DNA preparations each well received additional 500 μl of growth medium. The following day, the medium of two wells of each sample was replaced by fresh medium. The other two wells received medium containing 10^−8 M 4-hydroxy-tamoxifen (Sigma). 48 hours after induction with 4-OH-tamoxifen, the cells of each well were lysed with 200 μl lysate reagent supplemented with protease inhibitors (Roche Diagnostics GmbH). The lysates were centrifuged and 50 μl were used to determine the β-galactosidase activities using the β-galactosidase reporter gene assay (Roche Diagnostics GmbH) according to the manufacturer's protocol in a microplate luminometer (Berthold Detection Systems GmbH). The mean value and standard deviation of the samples was calculated from the β-galactosidase RLU values obtained from the two transfected wells of each sample. The relative β-galactosidase activity was obtained by comparison to the negative control (pCAG-Cre-ER(T2)-bpA) without 4-OH-tamoxifen.
To investigate the cell death effect of the different ER(T2) fusion constructs quantitatively, we performed transient cotransfections of the ER(T2) fusion protein expression vectors together with a fixed amount of a reporter plasmid coding for β-galactosidase in MEF5/N9 fibroblast cells. Transfected cells were treated 12 hours after transfection with 4-OH-tamoxifen at a concentration of 10^−8 M. Following 48 hours of 4-OH-tamoxifen induction, the cells from the various samples were lysed and the activity of β-galactosidase in the lysates was determined by a chemiluminescence assay and expressed in “Relative Light Units” (RLU) (FIG. 2). As positive controls for 4-OH-tamoxifen-inducible cell death, we prepared samples transfected with the constructs pCAG-HAFas-ER(T2) or pCAG-MFas-ER(T2) together with the reporter plasmid and treatment with 4-OH-tamoxifen. As negative control for this assay served samples which received the reporter plasmid together with the expression vector pCAG-Cre-ER(T2) and that were treated with 4-OH-tamoxifen.
To determine the relative activity of the tested ER(T2) fusion constructs inducing apoptosis in the presence of 4-OH-tamoxifen, the RLU values of β-galactosidase activity were divided individually for each sample by the RLU value obtained from the sample which received the plasmid pCAG-Cre-ER(T2) but was not treated with 4-OH-tamoxifen (defined as negative control). The relative activity of the tested Caspase- or bax-ER(T2) fusion proteins was then compared to the negative control for 4-OH-tamoxifen-dependent cell death defined as an activity of 1.

MEF5/N9 cells [2] = experiment: Visible phenotypic changes / viability of stably transfected MEF5/N9 clones on 4-OH-tamoxifen treatment; details: 10^−8 M 4-OH-tamoxifen, 24 h
Method: (§1) To generate stably transfected MEF5/N9 cells, 2·10^6 cells were coelectroporated with 32 μg ER(T2) fusion plasmid DNA linearised with ScaI and 8 μg pPgk-hygro-pA plasmid DNA linearised with XhoI and plated into two 96-well plates. The cells were grown in DMEM medium (Invitrogen) supplemented with 2 mM Glutamine and 10% fetal calf serum at 37° C., 5% CO2 in humid atmosphere, and passaged upon trypsinization. Two days after transfection the medium was supplemented with 250 U/ml of hygromycin (Calbiochem) for the selection of stable integrants. Upon the growth of resistant colonies these were individually expanded in the presence of hygromycin.
To examine 4-OH-tamoxifen-dependent cell death, 1·10^5 MEF5/N9 cells expressing ER(T2) fusion proteins were plated into each well of a six-well plate. The following day, for each sample the medium in two of four individual wells were replaced with medium supplemented with 10^−8 M 4-hydroxy-tamoxifen. 24 hours after induction with 4-OH-tamoxifen, cells were photographed through a Leica DMI6000B fluorescence microscope with phase contrast either at 10-fold or 20-fold magnification.
Since the responsiveness of the clones, transfected with the same construct, to 4-OH-tamoxifen differed only slightly from each other, only the results obtained from one clone for each construct are shown in the figure.

MEF5/N9 cells [3] = experiment: MTT cytotoxicity assay of stably transfected MEF5/N9 clones; details: 10^−8 M 4-OH-tamoxifen, 48 h
Method: as §1
To quantify 4-OH-tamoxifen-inducible cell death, we applied the colorimetric MTT assay (Mossman, J. Immunol. Methods, 65, 55 (1983)) allowing the quantification of cell survival. Cells (4·10^3) were plated on 96-well plates. The assay was carried out in three replicas for each sample treated with and without 4-OH-tamoxifen. After 12 h, medium was replaced either with fresh medium or with medium supplemented with 10^−8 M 4-OH-tamoxifen. Following 48 h of 4-OH-tamoxifen treatment, sterile filtered MTT reagent in PBS (Sigma) was added at the concentration of 0.5 mg/ml. Incubation occurred for 4 hours at 37° C. With ongoing reaction time, dark violet MTT formazan crystals appeared on the bottom of the wells containing living cells. The crystals were dissolved in 150 μl 0.04 N HCl/isopropanol to give a homogeneous blue solution suitable for absorbance measurement at a wavelength of 570 nm on the Synergy™ HT Multi-Detection Microplate Reader (BioTek).

MEF5/N9 cells [4] = experiment: Transient cotransfection of ER(T2) fusion expression vectors with β-galactosidase reporter; β-galactosidase activity in lysates; details: no 4-OH-tamoxifen; transient transfection 50 or 100 ng vector; relative to Cre-ER(T2) without 4-OH-tamoxifen

| Molecule | relative β-galactosidase activity in presence of 4-OH-tamoxifen compared to the negative control (MEF5/N9 cells [1]) [%] | 4-OH-tamoxifen-dependent cell death, phenotype of stable clones (MEF5/N9 cells [2]) | 4-OH-tamoxifen-dependent cell death, phenotype of stable clones (MEF5/N9 cells [2]; listed as Casp8ER) | cell viability in the presence of 4-OH-tamoxifen (MTT) (MEF5/N9 cells [3]) | basal toxicity: relative β-galactosidase activity compared to the negative control in absence of 4-OH-tamoxifen (MEF5/N9 cells [4]) [%] | 4-OH-tamoxifen-dependent cell death, phenotype of stable clones (MEF5/N9 cells [2]; listed as myrCasp8ER) | 4-OH-tamoxifen-dependent activity / toxicity in transient transfection (in words) (MEF5/N9 cells [1]) | 4-OH-tamoxifen-dependent cell death, phenotype of stable clones (MEF5/N9 cells [2]; listed as CreER) |
| --- | --- | --- | --- | --- | --- | --- | --- | --- |
| B1 | 3 | died in the presence of 4-OH-tamoxifen within 24 h | substantial cell death | 31% | 17 | – | – | – |
| B2 | 0.1 | died in the presence of 4-OH-tamoxifen within 24 h | – | 9% | 6 | substantial cell death | – | – |
| B3 | – | did not respond to 4-OH-tamoxifen | – | not affected by treatment with 4-OH-tamoxifen | – | – | Neither the expression of the negative control Cre-ER(T2) alone nor the combined treatment with 4-OH-tamoxifen at the concentration of 10^−8 M displayed toxic side effects | not affected by the treatment with 4-OH-tamoxifen |
